According to the Immune Epitope Database (IEDB):
pIC50: −log10 of the molar value.

Assays:
HLA-A*02:03 = experiment: IEDB peptide-MHC binding, purified MHC/competitive/radioactivity; ≥ and ≤ were set here for values at or beyond the usual limits of such assays
HLA-A*02:01 [1] = experiment: as above; settings: source organism: Vaccinia virus WR
HLA-A*02:02 = experiment: IEDB peptide-MHC binding, cellular MHC/competitive/fluorescence; ≥ and ≤ were set here for values at or beyond the usual limits of such assays
HLA-A*68:02 [2] = experiment: as above
HLA-A*02:06 = experiment: as above
HLA-A*68:02 [3] = experiment: IEDB peptide-MHC binding, purified MHC/competitive/radioactivity; ≥ and ≤ were set here for values at or beyond the usual limits of such assays
HLA-A*02:01 [4] = experiment: IEDB peptide-MHC binding, cellular MHC/competitive/fluorescence; ≥ and ≤ were set here for values at or beyond the usual limits of such assays
[5] = source organism: Vaccinia virus WR
[6] = source organism: Influenza A virus

Sequence	pIC50 (HLA-A*02:03; [5])	pIC50 (HLA-A*02:01 [1])	pIC50 (HLA-A*02:02; [5])	pIC50 (HLA-A*68:02 [2]; [5])	pIC50 (HLA-A*02:06; [5])	pIC50 (HLA-A*68:02 [3]; [5])	pIC50 (HLA-A*02:01 [4]; [5])	pIC50 (HLA-A*02:03; [6])	pIC50 (HLA-A*02:02; [6])	pIC50 (HLA-A*68:02 [2]; [6])	pIC50 (HLA-A*02:06; [6])	pIC50 (HLA-A*02:01 [4]; [6])	pIC50 (HLA-A*68:02 [3]; [6])
NMWREILSNT	7.25	6.00	5.22	4.20	4.92	–	–	–	–	–	–	–	–
SVDAMIHKT	5.44	–	5.30	–	4.98	6.06	4.62	–	–	–	–	–	–
SVKYYGRST	5.94	–	5.17	4.51	4.71	–	4.59	–	–	–	–	–	–
AAGAAVKGV	–	–	–	–	–	–	–	5.64	≤ 4.15	4.58	4.59	4.25	–
EIVSHLRAST	5.55	–	5.29	5.20	4.90	–	≤ 4.15	–	–	–	–	–	–
RLLKNMKQCT	5.50	–	4.33	≤ 4.15	4.92	–	5.01	–	–	–	–	–	–
NTLISSDGA	5.45	–	5.13	4.60	4.31	–	–	–	–	–	–	–	–
FVKKMLPKII	5.94	–	4.96	4.85	5.17	–	4.48	–	–	–	–	–	–
FIVYGRSNA	6.43	–	5.22	5.28	5.06	–	4.77	–	–	–	–	–	–
WIKNLETYT	6.20	–	4.74	≤ 4.15	5.09	–	4.30	–	–	–	–	–	–
RASAGQISV	–	–	–	–	–	–	–	5.30	4.41	5.07	4.94	4.71	–
ILSEKRKDTI	6.27	–	4.36	≤ 4.15	≤ 4.15	–	≤ 4.15	–	–	–	–	–	–
LVITYCLVT	5.49	5.88	5.16	5.24	5.10	–	–	–	–	–	–	–	–
LISSDGARVI	5.94	–	5.14	4.75	4.46	–	4.90	–	–	–	–	–	–
RTRLYDYFT	5.52	–	5.15	4.56	4.31	–	4.31	–	–	–	–	–	–
GIRCVSNLDI	5.41	–	4.70	≤ 4.15	4.48	–	≤ 4.15	–	–	–	–	–	–
QMYRKFSRCT	5.64	–	4.59	4.32	4.83	–	4.57	–	–	–	–	–	–
EQYTCNKPYT	5.52	–	4.85	4.69	4.34	–	≤ 4.15	–	–	–	–	–	–

Sequence	pIC50 (HLA-A*02:03; [5])	pIC50 (HLA-A*02:01 [1])	pIC50 (HLA-A*02:02; [5])	pIC50 (HLA-A*68:02 [2]; [5])	pIC50 (HLA-A*02:06; [5])	pIC50 (HLA-A*68:02 [3]; [5])	pIC50 (HLA-A*02:01 [4]; [5])	pIC50 (HLA-A*02:03; [6])	pIC50 (HLA-A*02:02; [6])	pIC50 (HLA-A*68:02 [2]; [6])	pIC50 (HLA-A*02:06; [6])	pIC50 (HLA-A*02:01 [4]; [6])	pIC50 (HLA-A*68:02 [3]; [6])
SVNASKTINA	6.14	–	4.76	–	4.54	6.20	4.71	–	–	–	–	–	–
TAIRAGYSIV	7.14	–	5.17	–	5.07	5.98	4.58	–	–	–	–	–	–
FLKVPAQNA	–	–	–	–	–	–	–	6.08	5.18	4.54	≤ 4.15	4.95	–
VIRHVDGKI	6.01	–	5.07	–	5.03	5.84	4.36	–	–	–	–	–	–
PTSETMYLT	5.44	–	4.98	–	≤ 4.15	5.39	4.46	–	–	–	–	–	–
TLNTMTKDA	–	–	–	–	–	–	–	6.24	4.83	≤ 4.15	≤ 4.15	4.99	–
MISTYPGNT	6.64	–	5.26	4.83	4.59	–	4.65	–	–	–	–	–	–
NLERETGLSA	5.78	–	4.75	4.50	4.82	–	4.76	–	–	–	–	–	–
LANERYRSA	6.26	–	4.50	≤ 4.15	≤ 4.15	–	4.31	–	–	–	–	–	–
EIRGVLPEET	5.31	–	5.02	–	4.70	5.34	4.52	–	–	–	–	–	–
YVSSSYKDI	5.92	–	5.30	–	4.78	5.58	4.51	–	–	–	–	–	–
RTEIIRMMESA	–	–	–	–	–	–	–	5.35	5.08	–	≤ 4.15	≤ 4.15	5.36
GADINLMPI	–	–	–	–	–	–	–	5.48	5.13	–	5.24	4.92	5.36
DITNILGGVL	5.43	–	4.91	–	4.72	6.29	4.79	–	–	–	–	–	–
CIVAAVIIM	5.85	5.80	4.85	–	4.48	5.35	–	–	–	–	–	–	–
LTKDRKMLEL	6.88	5.46	5.11	–	4.68	5.32	–	–	–	–	–	–	–
EVLMSPCRM	6.19	–	5.17	–	4.93	5.82	4.55	–	–	–	–	–	–
